Reference: the supplement of paper PMC10567573

B1: EHMT1 (parent)
chain: SARQGELQKVLLMLVDGIDPNFKM

Variants of: B1
Experiment: protein stability index of a GFP-peptide fusion (GPS, HEK-293T) (PSI 1-6); higher = more stable
Settings: c terminus: a fixed tail appended
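Also: lentivirally expressed fusions sorted by FACS into six bins by GFP to DsRed ratio, PSI derived from sequencing read proportions per bin multiplied by bin number.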

Variant | protein stability index
SARQGELQKVLLMLVDCIDPNFKM | 2
SARQGELQKVLLMLVDFIDPNFKM | 3.49
SARQGELQKVLLMLVDSIDPNFKM | 2.3
SARQGELQKVLLMLVDQIDPNFKM | 1.61
SARQGELQKVLLMLVDMIDPNFKM | 1.78
SARQGTLQKVLLMLVDGIDPNFKM | 2.4
SARQGDLQKVLLMLVDGIDPNFKM | 1.69
SARQGFLQKVLLMLVDGIDPNFKM | 2.34
SARQGMLQKVLLMLVDGIDPNFKM | 2.91
SARQGPLQKVLLMLVDGIDPNFKM | 2.45
SARQGELQKVLLMLCDGIDPNFKM | 1.64
SARQGELQKVLLMLWDGIDPNFKM | 2.75
SARQGELQKVLLMLDDGIDPNFKM | 2.69
SARQGELQKVLLMLMDGIDPNFKM | 1.59
SARQGELQKVLLMLFDGIDPNFKM | 3.86
SARQGELQKVLLMLADGIDPNFKM | 2.07
SARQGELQKVLLMLTDGIDPNFKM | 1.26
SARQGELQKVLLMLVDGCDPNFKM | 2.47
SARQGELQKVLLMLVDGWDPNFKM | 2.54
SARQGELQKVLLMLVDGRDPNFKM | 1.66
SARQGELQKVLLMLVDGDDPNFKM | 2.22
SARQGELQKVLLMLVDGPDPNFKM | 1.06
SARQGELQKVLLMLVDGFDPNFKM | 1.81
SARQGELQKVLLMLVDGSDPNFKM | 1.97

Variant | protein stability index
SARQGELQKVLLMLVDGTDPNFKM | 2.22
SARQGELQKVLLMLVDGNDPNFKM | 2.24
SARQGELQKVLLMLVDGHDPNFKM | 2.42
SARQGELQKVLMMLVDGIDPNFKM | 3.16
SARQGELQKVLNMLVDGIDPNFKM | 2.42
SARQGELQKVLSMLVDGIDPNFKM | 2.18
SARQGELQKVLFMLVDGIDPNFKM | 3.06
SARQGELQKVLRMLVDGIDPNFKM | 2.12
SARQGELQKVLAMLVDGIDPNFKM | 1.4
SARQGELQKVLVMLVDGIDPNFKM | 1.66
SARQGELQKVLCMLVDGIDPNFKM | 2.31
SARQGELQKVLEMLVDGIDPNFKM | 3.04
SARQGELQKVLDMLVDGIDPNFKM | 2.79
SARQGELQKFLLMLVDGIDPNFKM | 4.02
SARQGELQKELLMLVDGIDPNFKM | 3.02
SARQGELQKMLLMLVDGIDPNFKM | 2.12
SARQGELQKHLLMLVDGIDPNFKM | 2.16
SARQGELQKPLLMLVDGIDPNFKM | 2.43
SARQGELQKRLLMLVDGIDPNFKM | 1.88
SARQGELQKTLLMLVDGIDPNFKM | 1.99
SARQGELQKCLLMLVDGIDPNFKM | 1.77
SARQGELQKALLMLVDGIDPNFKM | 2.33
SARQGELQKVFLMLVDGIDPNFKM | 2.49
SARQGELQKVGLMLVDGIDPNFKM | 3.6

Variant | protein stability index
SARQGELQKVMLMLVDGIDPNFKM | 1.38
SARQGELQKVNLMLVDGIDPNFKM | 3.23
SARQGELQKVQLMLVDGIDPNFKM | 2.19
SARQGELQKVRLMLVDGIDPNFKM | 2.53
SARQGELQKVALMLVDGIDPNFKM | 2.11
SARQGELQKVSLMLVDGIDPNFKM | 2.45
SARQGELQKVCLMLVDGIDPNFKM | 1.99
SARQGELQKVHLMLVDGIDPNFKM | 2.15
SARQGELQKVLLELVDGIDPNFKM | 3.12
SARQGELQKVLLYLVDGIDPNFKM | 2.47
SARQGELQKVLLNLVDGIDPNFKM | 2.46
SARQGELQKVLLHLVDGIDPNFKM | 1.88
SARQGELQKVLLFLVDGIDPNFKM | 1.83
SARQGELQKVLLGLVDGIDPNFKM | 2.37
SARQGELQKVLLLLVDGIDPNFKM | 2.11
SARQGELQKVLLSLVDGIDPNFKM | 2
SARQGELQKVLLQLVDGIDPNFKM | 2.09
SARQGELQKVLLMLVDGIDPNFIM | 1.59
SARQGELQKVLLMLVDGIDPNFYM | 1.94
SARQGELQKVLLMLVDGIDPNFHM | 2.78
SARQGELQKVLLMLVDGIDPNFRM | 2.82
SARQGELQKVLLMLVDGIDPNFLM | 1.88
SARQGELQKVLLMLVDGIDPNFQM | 2.39
SARQGELQKVLLMLVDGIDPNFAM | 2.4

Variant | protein stability index
SARQGELQKVLLMLVDGIDPNFPM | 2.18
SASQGELQKVLLMLVDGIDPNFKM | 1.75
SAHQGELQKVLLMLVDGIDPNFKM | 1.5
SATQGELQKVLLMLVDGIDPNFKM | 1.76
SADQGELQKVLLMLVDGIDPNFKM | 1.78
SAEQGELQKVLLMLVDGIDPNFKM | 2.2
SAYQGELQKVLLMLVDGIDPNFKM | 1.88
SANQGELQKVLLMLVDGIDPNFKM | 2.38
SAIQGELQKVLLMLVDGIDPNFKM | 2.15
SALQGELQKVLLMLVDGIDPNFKM | 2.39
SAQQGELQKVLLMLVDGIDPNFKM | 2.25
SAFQGELQKVLLMLVDGIDPNFKM | 1.86
SARQGECQKVLLMLVDGIDPNFKM | 1.03
SARQGEYQKVLLMLVDGIDPNFKM | 1.5
SARQGEQQKVLLMLVDGIDPNFKM | 1.7
SARQGEFQKVLLMLVDGIDPNFKM | 1.04
SARQGENQKVLLMLVDGIDPNFKM | 1.36
SARQGETQKVLLMLVDGIDPNFKM | 1.62
SARQGEGQKVLLMLVDGIDPNFKM | 1.59
SARQGESQKVLLMLVDGIDPNFKM | 1.43
SARQGEEQKVLLMLVDGIDPNFKM | 2.35
SARQGERQKVLLMLVDGIDPNFKM | 2.12
